Measured values as given in US20230365675A1 (published 2023).

Key:
[1] = biological target: CD33-GFP fusion protein, wild type (WT), on 293FT cells (UniProt P20138); test: FACS, WT CD33-GFP on 293FT cells
[2] = biological target: Mutant CD33-GFP JS23 (L23N) on 293FT cells (UniProt P20138); test: FACS, mutant CD33-GFP on 293FT cells
[3] = biological target: Mutant CD33-GFP JS24 (Q24E) on 293FT cells (UniProt P20138); test: FACS, mutant CD33-GFP on 293FT cells
[4] = biological target: Mutant CD33-GFP JS25 (V25M) on 293FT cells (UniProt P20138); test: FACS, mutant CD33-GFP on 293FT cells
[5] = biological target: Mutant CD33-GFP JS28 (S28L) on 293FT cells (UniProt P20138); test: FACS, mutant CD33-GFP on 293FT cells
[6] = biological target: Mutant CD33-GFP M10 (Y127A) on 293FT cells (UniProt P20138); test: FACS, mutant CD33-GFP on 293FT cells
[7] = biological target: Mutant CD33-GFP M11 (L78T) on 293FT cells (UniProt P20138); test: FACS, mutant CD33-GFP on 293FT cells
[8] = biological target: Mutant CD33-GFP M12 (G88S) on 293FT cells (UniProt P20138); test: FACS, mutant CD33-GFP on 293FT cells
[9] = biological target: Mutant CD33-GFP M13 (R91E) on 293FT cells (UniProt P20138); test: FACS, mutant CD33-GFP on 293FT cells
[10] = biological target: Mutant CD33-GFP M14 (E170R) on 293FT cells (UniProt P20138); test: FACS, mutant CD33-GFP on 293FT cells
[11] = biological target: Mutant CD33-GFP M15 (Q171A) on 293FT cells (UniProt P20138); test: FACS, mutant CD33-GFP on 293FT cells
[12] = biological target: Mutant CD33-GFP M16 (4889AII) on 293FT cells (UniProt P20138); test: FACS, mutant CD33-GFP on 293FT cells
[13] = biological target: Mutant CD33-GFP M17 (F21Y) on 293FT cells (UniProt P20138); test: FACS, mutant CD33-GFP on 293FT cells
[14] = biological target: Mutant CD33-GFP M18 (353AAL) on 293FT cells (UniProt P20138); test: FACS, mutant CD33-GFP on 293FT cells
[15] = biological target: Mutant CD33-GFP M19 (348ATAI) on 293FT cells (UniProt P20138); test: FACS, mutant CD33-GFP on 293FT cells
[16] = biological target: Mutant CD33-GFP M4 (R122D) on 293FT cells (UniProt P20138); test: FACS, mutant CD33-GFP on 293FT cells
[17] = biological target: Mutant CD33-GFP M5 (AEAD), quadruple mutant, on 293FT cells (UniProt P20138); test: FACS, mutant CD33-GFP on 293FT cells
[18] = biological target: Mutant CD33-GFP M9 (Y49, 50A) on 293FT cells (UniProt P20138); test: FACS, mutant CD33-GFP on 293FT cells
[19] = biological target: Mutant CD33-GFP N20D on 293FT cells (UniProt P20138); test: FACS, mutant CD33-GFP on 293FT cells
[20] = biological target: T1, Mutant CD33-GFP M1 (W22A) on 293FT cells (UniProt P20138 18-364); test: FACS, mutant CD33-GFP on 293FT cells
T1 construct: whole, on cells; not shown: GFP fused to CD33

[21] = biological target: T2, Mutant CD33-GFP M2 (H45E) on 293FT cells (UniProt P20138 18-364); test: FACS, mutant CD33-GFP on 293FT cells
T2 construct: whole, on cells; not shown: GFP fused to CD33

[22] = biological target: T3, Mutant CD33-GFP M3 (N99A) on 293FT cells (UniProt P20138 18-364); test: FACS, mutant CD33-GFP on 293FT cells
T3 construct: whole, on cells; not shown: GFP fused to CD33

[23] = biological target: T4, Mutant CD33-GFP M6 (F43N) on 293FT cells (UniProt P20138 18-364); test: FACS, mutant CD33-GFP on 293FT cells
T4 construct: whole, on cells; not shown: GFP fused to CD33

[24] = biological target: T5, Mutant CD33-GFP M7 (R98D) on 293FT cells (UniProt P20138 18-364); test: FACS, mutant CD33-GFP on 293FT cells
T5 construct: whole, on cells; not shown: GFP fused to CD33

[25] = biological target: T6, Mutant CD33-GFP M8 (K52A) on 293FT cells (UniProt P20138 18-364); test: FACS, mutant CD33-GFP on 293FT cells
T6 construct: whole, on cells; not shown: GFP fused to CD33

[26] = biological target: Biotinylated CD33 protein (UniProt P20138); test: Octet competition on biotinylated CD33; competitor 348
[27] = biological target: Biotinylated CD33 protein (UniProt P20138); test: Octet competition on biotinylated CD33; competitor 353
[28] = biological target: Biotinylated CD33 protein (UniProt P20138); test: Octet competition on biotinylated CD33; competitor 389
[29] = biological target: Biotinylated CD33 protein (UniProt P20138); test: Octet competition on biotinylated CD33; competitor 416
[30] = biological target: Biotinylated CD33 protein (UniProt P20138); test: Octet competition on biotinylated CD33; competitor 420
[31] = biological target: Biotinylated CD33 protein (UniProt P20138); test: Octet competition on biotinylated CD33; competitor 424
[32] = biological target: Biotinylated CD33 protein (UniProt P20138); test: Octet competition on biotinylated CD33; competitor 426
[33] = biological target: Biotinylated CD33 protein (UniProt P20138); test: Octet competition on biotinylated CD33; competitor 429
[34] = biological target: Biotinylated CD33 protein (UniProt P20138); test: Octet competition on biotinylated CD33; competitor 430
[35] = biological target: Biotinylated CD33 protein (UniProt P20138); test: Octet competition on biotinylated CD33; competitor h195
[36] = biological target: T7, CD33 on MOLM-13 cells (human, UniProt P20138 18-364); test: FACS, MOLM-13 cells expressing CD33 against MOLM-13 CD33 knockout
T7 construct: whole, on cells; also called MOLM-13 cell line expressing CD33; wild-type MOLM-13 cells (CD33+)
Source text: A naïve llama phage library was panned and screened to identify single domain antibodies that specifically recognize CD33. A MOLM-13 cell line expressing CD33 was used as a CD33-positive cell line, and a MOLM-13 cell line harboring a knockout of CD33 was used as a CD-33 negative cell line. A purified anti-human CD33 antibody was used as a positive control. Specific binding activity of identified binders was confirmed by FACS. The heavy chain variable region sequences of the identified binders are included herein.

[37] = biological target: Biotinylated CD33 protein (UniProt P20138); test: Octet competition on biotinylated CD33; competitor 413

Sequence of Biotinylated CD33 protein (P20138 18-259 limits assumed): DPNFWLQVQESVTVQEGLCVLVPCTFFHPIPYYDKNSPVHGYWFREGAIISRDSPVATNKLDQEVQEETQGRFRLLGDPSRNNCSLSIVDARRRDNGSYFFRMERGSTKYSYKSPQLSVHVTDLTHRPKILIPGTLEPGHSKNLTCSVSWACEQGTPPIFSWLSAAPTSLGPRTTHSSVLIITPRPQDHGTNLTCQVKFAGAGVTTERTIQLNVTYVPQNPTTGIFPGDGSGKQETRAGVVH
Sequence of Mutant CD33-GFP JS25 (V25M) on 293FT cells (P20138 18-364 V25M): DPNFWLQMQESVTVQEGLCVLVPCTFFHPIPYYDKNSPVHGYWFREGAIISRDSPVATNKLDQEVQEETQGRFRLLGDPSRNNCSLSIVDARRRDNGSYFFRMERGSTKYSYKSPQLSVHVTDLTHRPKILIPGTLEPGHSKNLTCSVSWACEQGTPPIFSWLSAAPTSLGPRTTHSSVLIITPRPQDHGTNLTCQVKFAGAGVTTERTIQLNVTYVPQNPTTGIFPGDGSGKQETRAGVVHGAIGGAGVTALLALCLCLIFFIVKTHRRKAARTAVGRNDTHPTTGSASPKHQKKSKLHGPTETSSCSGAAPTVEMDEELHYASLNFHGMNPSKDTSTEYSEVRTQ
Sequence of Mutant CD33-GFP M5 (AEAD), quadruple mutant, on 293FT cells (P20138 other isoform, or with tags, fused parts or gaps mutant): as the sequence (P20138 18-364 V25M) above, with W5A, M8V, H28E, N82A, R105D counted along it
T4 sequence (P20138 18-364 F43N): as the sequence (P20138 18-364 V25M) above, with M8V, F26N counted along it
Sequence of Mutant CD33-GFP M13 (R91E) on 293FT cells (P20138 18-364 R91E): as the sequence (P20138 18-364 V25M) above, with M8V, R74E counted along it
Sequence of Mutant CD33-GFP M12 (G88S) on 293FT cells (P20138 18-364 G88S): as the sequence (P20138 18-364 V25M) above, with M8V, G71S counted along it
T3 sequence (P20138 18-364 N99A): as the sequence (P20138 18-364 V25M) above, with M8V, N82A counted along it
T2 sequence (P20138 18-364 H45E): as the sequence (P20138 18-364 V25M) above, with M8V, H28E counted along it
T5 sequence (P20138 18-364 R98D): as the sequence (P20138 18-364 V25M) above, with M8V, R81D counted along it
T7 sequence (P20138 18-364): as the sequence (P20138 18-364 V25M) above, with M8V counted along it
Sequence of CD33-GFP fusion protein, wild type (WT), on 293FT cells (P20138 18-364): as the sequence (P20138 18-364 V25M) above, with M8V counted along it
Sequence of Mutant CD33-GFP JS24 (Q24E) on 293FT cells (P20138 18-364 Q24E): as the sequence (P20138 18-364 V25M) above, with Q7E, M8V counted along it
Sequence of Mutant CD33-GFP M15 (Q171A) on 293FT cells (P20138 18-364 Q171A): as the sequence (P20138 18-364 V25M) above, with M8V, Q154A counted along it
Sequence of Mutant CD33-GFP M17 (F21Y) on 293FT cells (P20138 18-364 F21Y): as the sequence (P20138 18-364 V25M) above, with F4Y, M8V counted along it
Sequence of Mutant CD33-GFP JS23 (L23N) on 293FT cells (P20138 18-364 L23N): as the sequence (P20138 18-364 V25M) above, with L6N, M8V counted along it
T1 sequence (P20138 18-364 W22A): as the sequence (P20138 18-364 V25M) above, with W5A, M8V counted along it
Sequence of Mutant CD33-GFP JS28 (S28L) on 293FT cells (P20138 18-364 S28L): as the sequence (P20138 18-364 V25M) above, with M8V, S11L counted along it
Sequence of Mutant CD33-GFP M10 (Y127A) on 293FT cells (P20138 18-364 Y127A): as the sequence (P20138 18-364 V25M) above, with M8V, Y110A counted along it
Sequence of Mutant CD33-GFP M11 (L78T) on 293FT cells (P20138 18-364 L78T): as the sequence (P20138 18-364 V25M) above, with M8V, L61T counted along it
Sequence of Mutant CD33-GFP M9 (Y49, 50A) on 293FT cells (P20138 other isoform, or with tags, fused parts or gaps mutant): as the sequence (P20138 18-364 V25M) above, with M8V, Y32A, Y33A counted along it
T6 sequence (P20138 18-364 K52A): as the sequence (P20138 18-364 V25M) above, with M8V, K35A counted along it
Sequence of Mutant CD33-GFP M14 (E170R) on 293FT cells (P20138 18-364 E170R): as the sequence (P20138 18-364 V25M) above, with M8V, E153R counted along it
Sequence of Mutant CD33-GFP M4 (R122D) on 293FT cells (P20138 18-364 R122D): as the sequence (P20138 18-364 V25M) above, with M8V, R105D counted along it
Sequence of Mutant CD33-GFP N20D on 293FT cells (P20138 18-364 N20D): as the sequence (P20138 18-364 V25M) above, with N3D, M8V counted along it

| Binder | FACS binding data [1] | FACS binding data [2] | FACS binding data [3] | FACS binding data [4] | FACS binding data [5] | FACS binding data [6] | FACS binding data [7] | FACS binding data [8] | FACS binding data [9] | FACS binding data [10] | FACS binding data [11] | FACS binding data [12] | FACS binding data [13] | FACS binding data [14] | FACS binding data [15] | FACS binding data [16] | FACS binding data [17] | FACS binding data [18] | FACS binding data [19] | FACS binding data [20] | further results |
| --- | --- | --- | --- | --- | --- | --- | --- | --- | --- | --- | --- | --- | --- | --- | --- | --- | --- | --- | --- | --- | --- |
| sdCD33_5 (VHH, sdAb from a naive llama phage library; also called 413; sdAb413) VHH: QVQLQESGGGLVQPGGSLRLSCAASGSVFSIYAMAWYRQAPGKQRELVAVITSGGATNYADSVKGRFTISRDIAKKTLYLQMNTLKPEDTAVYYCYAHLLIQPFDRFYDYWGQGTQVTVSS | 98 | 98.4 | 97 | 99.5 | 99.4 | 90.2 | 58.5 | 98.6 | 98.5 | 98.2 | 98.6 | 98.3 | 84.6 | 49.2 | 99.3 | 76 | 0.81 | 0.79 | 56.7 | 76.4 | FACS binding data [21]: 5.93; FACS binding data [22]: 96.8; FACS binding data [23]: 97.5; FACS binding data [24]: 97; FACS binding data [25]: 91.4; Octet signal [26]: -0.024; Octet signal [27]: 0.248; Octet signal [28]: 0.483; Octet signal [29]: -0.0586; Octet signal [30]: 0.15; Octet signal [31]: -0.0796; Octet signal [32]: 0.0667; Octet signal [33]: -0.0887; Octet signal [34]: 0.63; Octet signal [35]: 0.648; binding result [36]: binds |
| sdCD33_11 (VHH, sdAb from a naive llama phage library; also called 430; sdAb430) VHH: AVQLVESGGGLVQAGGSLRLSCAASGDTFANYAMGWFRQAPGKEREFVAAISWSDSSTHYADSVKGRFTIPRDNAKNAVYLQMDQLKPEDMAVYYCYAYIRGVGEVRYVDYWGQGTQVTVSS | 97.6 | 99.2 | 99.6 | 99.7 | 99.7 | 94.2 | 73.8 | 98.5 | 98.7 | 97.4 | 97.2 | 97.4 | 96.1 | 99.4 | 99.8 | 98.4 | 0.79 | 1.01 | 97.5 | 99.4 | FACS binding data [21]: 99.3; FACS binding data [22]: 99.3; FACS binding data [23]: 98.8; FACS binding data [24]: 98.5; FACS binding data [25]: 97.1; Octet signal [26]: -0.212; Octet signal [27]: -0.112; Octet signal [28]: 0.0436; Octet signal [37]: -0.108; Octet signal [29]: -0.268; Octet signal [30]: -0.169; Octet signal [31]: -0.377; Octet signal [32]: -0.227; Octet signal [33]: -0.29; Octet signal [35]: 0.136; binding result [36]: binds |
